Measured values taken from the supplement of paper PMC10724198.
± gives the standard deviation of the averaged measurements.

test system: Saccharomyces cerevisiae; assay: protein stability index of tFT-peptide fusion (C-terminal peptide) (PSI (0-1 scale)); higher = more stable (slower turnover); settings: genetic background: wild type; temperature: 30 C
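Also: PSI is a weighted mean of sequencing reads over stability bins, variants kept only with over 10 reads, mCherry proximal and sfGFP distal, peptide attached via GGGS linker.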

In order of rising protein stability index:
1. CPVSFSFCLKVL  0.045 ± 0.016
2. FFICCPLLVVCS  0.109 ± 0.041
3. FLSLPLFILFLS  0.132 ± 0.014
4. DVHPLFYCIPVY  0.13922 ± 3.4e-05
5. FTEFWFFKQMSV  0.171 ± 0.016
6. FGRAVWSRFCIV  0.172 ± 0.064
7. DCLSFVLFLFLC  0.183 ± 0.017
8. CWLFVWVRVISL  0.186 ± 0.033
9. FFLLSVVLKYSV  0.19 ± 0.015
10. FFVYFFLLLFWF  0.208 ± 0.0049
11. FFRLFAPLLVVL  0.212 ± 0.01
12. FRVFYSFLLCLS  0.22 ± 0.0028
13. FRDRFLRWNLVS  0.223 ± 0.022
14. FAIPFVLFFRVT  0.224 ± 0.07
15. FFACSLLFVLVF  0.228 ± 0.0075
16. FLFFWRASLFFW  0.229 ± 0.023
17. FPFFLLAAPFLA  0.237 ± 0.036
18. CLWLRCIVSILP  0.239 ± 0.034
19. FCFCLVLRVFLG  0.253 ± 0.034
20. FFSQLFLEIVAA  0.257 ± 0.031
21. CRCLFVVKNWLS  0.262 ± 0.017
22. FEVLINIWFLSA  0.262 ± 0.019
23. DFCCGVILTCVC  0.279 ± 0.01
24. CVLGWCSLIAWC  0.284 ± 0.018
25. CLLSRYRVFFLG  0.29 ± 0.056
26. FHRSVVRLWLRN  0.301 ± 0.041
27. FQPLELFFVCVF  0.305 ± 0.014
28. FSLLFVRFCFFL  0.305 ± 0.037
29. FSLLLSLSLFHC  0.31 ± 0.015
30. FFRFNCVFWLFL  0.3129 ± 0.0019
31. FCLMLWGAVLFL  0.314 ± 0.025
32. FLVLFYCTFWVR  0.329 ± 0.089
33. FLMCVFFLCFSN  0.34 ± 0.028
34. FLIYMFRHCFFH  0.345 ± 0.029
35. FCVLLFFFPLII  0.363 ± 0.024
36. FLCLLASFVVCF  0.363 ± 0.008
37. FNMLFVVRLLYM  0.365 ± 0.0057
38. FFVFSFVLFFPL  0.369 ± 0.049
39. FFLFLVCLFFFS  0.37 ± 0.026
40. FNLFWPVSAFVV  0.374 ± 0.019
41. CLLGMKSRTILV  0.377 ± 0.014
42. FCIIVFYIFVGI  0.382 ± 0.041
43. FFVLGPVVMSIH  0.3849 ± 0.0033
44. CLFRVCLFILSI  0.386 ± 0.0041
45. FFLFILYFGSCF  0.399 ± 0.029
46. FASALAPLSAVA  0.4002 ± 0.0029
47. FLVPLSPMLLSA  0.4 ± 0.019
48. FFILVFFSLLST  0.404 ± 0.032
49. FPPFALLLIIND  0.406 ± 0.089
50. FGVLLLFLFFLP  0.413 ± 0.041
51. FSVLVVYTRLFQ  0.414 ± 0.091
52. FGCLFILRCSFL  0.422 ± 0.0099
53. DIGCLWSKTRLC  0.431 ± 0.12
54. FRCFVLPYFGRF  0.435 ± 0.036
55. FSFPAFTFIVSI  0.4357 ± 0.0022
56. FCCWCVCFGYSG  0.443 ± 0.0049
57. FCFFSMGFVLAL  0.453 ± 0.072
58. FFFPFLCIAVSL  0.458 ± 0.022
59. FFAIFSLLLSFT  0.459 ± 0.026
60. FMCCFWFFWLGF  0.459 ± 0.031
61. FCASCLVCFIYL  0.462 ± 0.023
62. FPFFVFRVWFGA  0.464 ± 0.014
63. FRVILISACESV  0.464 ± 0.0071
64. CVFVRCVDCMSG  0.465 ± 0.024
65. FLSLSFLLLHFP  0.471 ± 0.064
66. FGKGRSLLLVFS  0.475 ± 0.016
67. CLASCRHRTYLC  0.483 ± 0.12
68. FPRQFVYLPLLF  0.487 ± 0.011
69. FSICGFYSLCFG  0.492 ± 0.045
70. FFALYGHILGLF  0.4957 ± 0.0022
71. CVFCRVAVGVDG  0.516 ± 0.026
72. FTRWLVYCTPLC  0.516 ± 0.024
73. FGARCSLSPLVT  0.547 ± 0.1
74. DILQITNIKQKR  0.572 ± 0.16
75. CSRTRLHCFTAS  0.712 ± 0.011
76. DGGHLVGHDLFY  0.727 ± 0.024
77. CSSIFSSSDCYA  0.7457 ± 0.0014
78. FLAPPFLPPPPA  0.748 ± 0.016

test system: Saccharomyces cerevisiae; assay: as above; settings: genetic background: cdc34-1; temperature: 37 C
Method: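 MPS profiling in S. cerevisiae of the tFT-X12 degron library: putative degron peptides plus stable controls, 12 aa, fused to the C-terminus of a sfGFP-mCherry timer. Cells are FACS-sorted into 8 mCherry/sfGFP bins and deep-sequenced. PSI runs from 0 (unstable) to 1 (stable). Backgrounds are wild type, das1Δ and doa10Δ at 30 °C, and wild type, das1Δ, cdc34-1 and cdc53-1 at 37 °C; 2-3 technical replicates each.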

In order of falling protein stability index:
1. FGARCSLSPLVT  0.7249 ± 0.0062
2. DGGHLVGHDLFY  0.716 ± 0.023
3. DILQITNIKQKR  0.71 ± 0.041
4. FFALYGHILGLF  0.702 ± 0.02
5. CSRTRLHCFTAS  0.696 ± 0.062
6. FLAPPFLPPPPA  0.693 ± 0.021
7. CSSIFSSSDCYA  0.681 ± 0.059
8. DIGCLWSKTRLC  0.669 ± 0.019
9. CLASCRHRTYLC  0.652 ± 0.026
10. FPRQFVYLPLLF  0.647 ± 0.064
11. CLLSRYRVFFLG  0.629 ± 0.071
12. CRCLFVVKNWLS  0.62 ± 0.039
13. FRCFVLPYFGRF  0.608 ± 0.032
14. FGRAVWSRFCIV  0.604 ± 0.044
15. FTEFWFFKQMSV  0.579 ± 0.019
16. FCCWCVCFGYSG  0.575 ± 0.093
17. FSICGFYSLCFG  0.569 ± 0.028
18. FRVILISACESV  0.565 ± 0.016
19. FPFFLLAAPFLA  0.564 ± 0.007
20. FTRWLVYCTPLC  0.554 ± 0.033
21. CVFVRCVDCMSG  0.553 ± 0.013
22. FGKGRSLLLVFS  0.548 ± 0.02
23. FSLLLSLSLFHC  0.547 ± 0.053
24. CVFCRVAVGVDG  0.5389 ± 0.0011
25. FLIYMFRHCFFH  0.537 ± 0.071
26. FMCCFWFFWLGF  0.522 ± 0.041
27. FFRFNCVFWLFL  0.509 ± 0.0099
28. FNLFWPVSAFVV  0.506 ± 0.061
29. FCASCLVCFIYL  0.492 ± 0.0074
30. FHRSVVRLWLRN  0.49 ± 0.06
31. FRDRFLRWNLVS  0.481 ± 0.073
32. FASALAPLSAVA  0.48 ± 0.014
33. FPPFALLLIIND  0.475 ± 0.015
34. FFFPFLCIAVSL  0.464 ± 0.036
35. FPFFVFRVWFGA  0.4642 ± 0.0036
36. FCIIVFYIFVGI  0.451 ± 0.061
37. FFAIFSLLLSFT  0.449 ± 0.015
38. FLVPLSPMLLSA  0.446 ± 0.011
39. FGCLFILRCSFL  0.429 ± 0.047
40. FSVLVVYTRLFQ  0.427 ± 0.064
41. FFLFLVCLFFFS  0.405 ± 0.016
42. FLSLSFLLLHFP  0.398 ± 0.018
43. CLFRVCLFILSI  0.397 ± 0.019
44. FNMLFVVRLLYM  0.37 ± 0.033
45. FFLFILYFGSCF  0.358 ± 0.025
46. FSFPAFTFIVSI  0.352 ± 0.03
47. FCFFSMGFVLAL  0.3489 ± 0.00089
48. CPVSFSFCLKVL  0.348 ± 0.019
49. CLLGMKSRTILV  0.347 ± 0.029
50. FFVFSFVLFFPL  0.347 ± 0.0076
51. FGVLLLFLFFLP  0.347 ± 0.0038
52. FLCLLASFVVCF  0.3271 ± 0.00067
53. FLMCVFFLCFSN  0.304 ± 0.031
54. FFILVFFSLLST  0.2927 ± 0.0014
55. FFVLGPVVMSIH  0.278 ± 0.046
56. FCVLLFFFPLII  0.272 ± 0.012
57. FEVLINIWFLSA  0.272 ± 0.028
58. FSLLFVRFCFFL  0.2674 ± 0.00097
59. FLSLPLFILFLS  0.229 ± 0.036
60. FCLMLWGAVLFL  0.216 ± 0.014
61. DCLSFVLFLFLC  0.203 ± 0.038
62. CVLGWCSLIAWC  0.201 ± 0.044
63. FRVFYSFLLCLS  0.194 ± 0.0057
64. FFVYFFLLLFWF  0.171 ± 0.015
65. FLVLFYCTFWVR  0.162 ± 0.0078
66. FAIPFVLFFRVT  0.161 ± 0.02
67. CLWLRCIVSILP  0.121 ± 0.0082
68. FCFCLVLRVFLG  0.118 ± 0.0026
69. FLFFWRASLFFW  0.116 ± 0.0025
70. FFRLFAPLLVVL  0.113 ± 0.02
71. CWLFVWVRVISL  0.0995 ± 0.049
72. FFACSLLFVLVF  0.0985 ± 0.0033
73. FQPLELFFVCVF  0.0866 ± 0.04
74. DFCCGVILTCVC  0.0751 ± 0.0081
75. FFSQLFLEIVAA  0.0642 ± 0.024
76. FFLLSVVLKYSV  0.0374 ± 0.0046
77. DVHPLFYCIPVY  0.0345 ± 0.018
78. FFICCPLLVVCS  0.0277 ± 0.012
